Experimental data reported in publication PMC12557302.

Target: CD36 on human monocytes / monocyte membrane extract (Homo sapiens, UniProt P16671 1-472)
Test: pull-down with mass spectrometry

Sequence of CD36 on human monocytes / monocyte membrane extract (P16671 whole entry): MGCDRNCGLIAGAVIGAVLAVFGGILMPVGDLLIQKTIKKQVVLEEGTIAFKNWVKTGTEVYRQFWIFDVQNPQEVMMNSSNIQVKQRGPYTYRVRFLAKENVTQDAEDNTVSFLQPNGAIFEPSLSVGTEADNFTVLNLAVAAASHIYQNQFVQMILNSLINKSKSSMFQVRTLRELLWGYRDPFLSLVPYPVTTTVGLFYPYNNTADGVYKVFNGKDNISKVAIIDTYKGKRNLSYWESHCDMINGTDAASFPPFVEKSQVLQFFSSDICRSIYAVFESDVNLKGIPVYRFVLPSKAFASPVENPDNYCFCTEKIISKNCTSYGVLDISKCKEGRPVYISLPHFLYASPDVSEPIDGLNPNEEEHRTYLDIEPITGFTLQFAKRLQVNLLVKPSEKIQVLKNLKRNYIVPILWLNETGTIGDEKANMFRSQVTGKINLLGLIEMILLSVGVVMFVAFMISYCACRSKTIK

B1: CD36Apt (Mono.A2) (ssDNA)
DNA: ATCCAGAGTGACGCAGCAGAAGAGTAGATGAAACGTTTTTTCGCCCGATAAAAGGGACGTGCGTCAGACATGGACACGGTGGCTTAGT
binding result: binds
